Our source for the Kd values is patent US20240156980A1 (Molecular Partners, published 2024).

Where a chain is given by its changes, count along the chain named.

Assay [1] addresses T1, CD3-specific binding domain C7v14.
T1 construct: Used as analyte in SPR; also called hC22_88B02v14
T1 chain: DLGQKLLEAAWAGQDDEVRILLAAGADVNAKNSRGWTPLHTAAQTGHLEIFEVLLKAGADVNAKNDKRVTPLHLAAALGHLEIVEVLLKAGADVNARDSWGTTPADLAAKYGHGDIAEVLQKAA
The experiment in a line: SPR (affinity cited in Example 9; CD3-binding domain taken as C7v14); high affinity Binder #1. The text has this: (§1) An important feature of a binding moiety of the invention is its affinity towards a drug molecule. Relevant aspects include the off-rate of the binding moiety from the drug molecule and the resulting blocking half-life. Surface plasmon resonance (SPR) assays were used to determine the binding affinity of ankyrin repeat binding domains to the CD3 binding domain of a TCE drug molecule. AN SPR data was generated using a Bio-Rad ProteOn XPR36 instrument with PBS-T (0.005% Tween 20) as running buffer. A new neutravidin sensor chip (NLC) was air-initialized and conditioned according to Bio-Rad manual.

Assay [2] has the same target. Nature of the assay: SPR (ProteOn XPR36), biotinylated Binder captured on NLC neutravidin chip as ligand, CD3-specific binding domain as analyte, PBS-T, 25 C; KD from kon/koff.
Excerpt: as §1

The target in assay [3] is T2, CD3-specific binding domain C7v118.
T2 construct: Used as analyte in SPR; also called hC22_88B02v118
T2 chain: T1 chain with I20E, A23K, N32D, R34Q, N65D, R68G, R97Q, G114E
Described as above.
Excerpt: as §1

Assay [4] deals with T3, CD3-specific binding domain C7v119.
T3 construct: Used as analyte in SPR; also called hC22_88B02v119
T3 chain: T1 chain with I20E, A23K, N65D, R68G, R97Q, G114E
The assay is described as above.
Excerpt: as §1

The target of assay [5] is T4, CD3-specific binding domain C7v122.
T4 construct: Used as analyte in SPR; also called hC22_88B02v122
T4 chain: T1 chain with I20E, A23K, G114Q
The description is as above.
Excerpt: as §1

The target of assay [6] is T5, CD3-specific binding domain C7v127.
T5 construct: Used as analyte in SPR; also called hC22_88B02v127
T5 chain: T1 chain with D15L, A23K, N65T, D66N, S99T, G114R
The description is as above.
Excerpt: as §1

Assay [7] has as its target T1, CD3-specific binding domain C7v14. The experiment in a line: SPR (affinity cited in Example 9; CD3-binding domain taken as C7v14); lower affinity Binder #3.
Excerpt: as §1

The target is the same in assay [8]. The experiment in a line: SPR (ProteOn XPR36), biotinylated Binder captured on NLC neutravidin chip as ligand, CD3-specific binding domain as analyte, PBS-T, 25 C; KD by equilibrium fitting.
Excerpt: as §1

The target of assay [9] is T2, CD3-specific binding domain C7v118. The assay is described as above.
Excerpt: as §1

The target of assay [10] is T3, CD3-specific binding domain C7v119. The assay is described as above.
Excerpt: as §1

Assay [11] concerns the target T4, CD3-specific binding domain C7v122. Described as above.
Excerpt: as §1

The target in assay [12] is T5, CD3-specific binding domain C7v127. The description is as above.
Excerpt: as §1

B1: Binder #1 (designed binder)
chain: MRGSHHHHHHGSDLGKKLLQAARAGQLDEVRELLKAGADVNAKDAKGLTPLHLAAYHGHLEIVEVLLKAGADVNAKDVYGWTPLHIAAASGHLEIVEVLLKAGADVNAKDWLGWTPLHLAASHGHLEIVEVLLKAGADVNAQDKSGKTPADLAARAGHQDIAEVLQKAA
modifications: biotinylated for SPR (site not stated)
notes: also called 06E05
In general, Kd refers to the equilibrium constant for the complex coming apart. A lower Kd goes with a tighter complex. With B1, the dissociation constant (Kd) in [1] is < 1 nM; in [2], 0.33 nM; in assay [3], 0.44 nM; in [4] it was 0.36 nM; in assay [5], 0.21 nM; in assay [6], 0.02 nM.

B2: Binder #3 (designed binder)
chain: B1 chain with W111A
modifications: biotinylated for SPR (site not stated)
notes: N-terminal His-tag; also called 06E05v05
As to B2, the Kd in assay [7] was > 100 nM; in assay [8], 189 nM; in assay [9] it was 683 nM; in assay [10], 336 nM; in assay [11], 149 nM; in assay [12] it was 53.4 nM.
